The text below walks through data of US20220411536A1 (NUMAB THERAPEUTICS, published 2022).

Experiment [1] concerns the target T1, human PD-L1 expressed on cells (CHO-PD-L1, HCC1954, HCC827) (human, UniProt Q9NZQ7 19-290).
T1 construct: whole, on cells; also called hPD-L1; PD-L1 expressing cells
Put plainly: flow cytometry with human SA, inhibition of PD-1 binding to HCC1954 cells. On the technique in general: A flow cytometer gives signals particle by particle.

The target in experiment [2] is CD137 on transgenic NF-kB Jurkat reporter cells (Homo sapiens (Human), UniProt Q07011 24-255). As to the kind of experiment: cell-based or functional assay.
Experiment [3] concerns the target T1, human PD-L1 expressed on cells …. As to the kind of experiment: flow cytometry with human SA, inhibition of PD-1 binding to HCC827 cells.
The target is the same in experiment [4]. As to the kind of experiment: flow cytometry with human SA, inhibition of PD-1 binding to HCC1954 cells. This is another data set of the same source.
For experiment [5] the target is unchanged. Put plainly: cell-based or functional assay.

B1: PRO1992 (multispecific antibody)
chain 1: DVVMTQSPSSLSASVGDRVTITCQASQIISSRSAWYQQKPGQPPKLLIYQASKLASGVPSRFSGSGSGTDFTLTISSLQPEDFATYYCQCTYIDSNFGAFGTGTKLTVLGGGGGSGGGGSGGGGSGGGGSEVQLVESGGGLVQPGGSLRLSCAASGFSFSSSYWICWVRQAPGKGLEWVGCVFTGDGTTYYASWAKGRFTISRDNSKNTVYLQMNSLRAEDTATYFCARPVSVYYYGMDLWGQGTLVTVSSGGGGSGGGGSDIQMTQSPSSLSASVGDRVTITCKASQDVSIGVAWYQQKPGKAPKLLIYSASYRYTGVPSRFSGSGSGTDFTLTISSLQPEDFATYYCQQYYIYPYTFGCGTKVTVLGGGSGGSDIQMTQSPSSLSASVGDRVTITCQASQSINDYLAWYQQKPGKAPKLLIYKASTLASGVPSRFSGSGSGTDFTLTISSLQPEDFATYYCQAAYIITDIDNVFGTGTKVTVLG
chain 2: DIQMTQSPSSLSASVGDRVTITCQASQSISNRLAWYQQKPGKAPKLLIYSASTLASGVPSRFSGSGSGTDFTLTISSLQPEDFATYYCQSTYYGNDGNAFGCGTKVTVLGGGGGSGGGGSGGGGSGGGGSEVQLVESGGGLVQPGGSLRLSCAASGFSFSANYYPCWVRQAPGKCLEWIGCIYGGSSDITYDANWTKGRFTISRDNSKNTVYLQMNSLRAEDTAVYYCARSAWYSGWGGDLWGQGTLVTVSSGGGGSGGGGSQVQLQESGPGLVKPSETLSLTCKVSGFSFSSGYDMCWIRQPPGKGLEWIGCVVAGSVDITYYASWAKGRVTISVDSSKNQFSLKLSSVTAADTAVYYCARKDAYSDAFNLWGQGTLVTVSSGGGSGGGSEVQLVESGGGLVQPGGSLRLSCAASGFTFTDYTMDWVRQAPGKCLEWVADVNPNSGGSIYNQRFKGRFTLSVDRSKNTLYLQMNSLRAEDTAVYYCARNLGPSFYFDYWGQGTLVTVSS
With B1, in experiment [1], the concentration for half-maximal inhibition (IC50) (usually the midpoint of a concentration-inhibition curve) stood at 0.592 µg/mL. In experiment [2], the “EC50, NFkB reporter gene assay, HCC827 cells” value amounted to 0.253 nM and the “EC50, NFkB reporter gene assay, HCC1954 cells” value turned out to be 0.0824 nM.

B2: PRO1814 (multispecific antibody)
chain: DIQMTQSPSSLSASVGDRVTITCQASQSINDYLAWYQQKPGKAPKLLIYKASTLASGVPSRFSGSGSGTDFTLTISSLQPEDFATYYCQAAYIITDIDNVFGTGTKVTVLGGGGGSEVQLVESGGGLVQPGGSLRLSCAASGFTFTDYTMDWVRQAPGKGLEWVADVNPNSGGSIYNQRFKGRFTLSVDRSKNTLYLQMNSLRAEDTAVYYCARNLGPSFYFDYWGQGTLVTVSSGGGGSGGGGSGGGGSGGGGSDIQMTQSPSSLSASVGDRVTITCKASQDVSIGVAWYQQKPGKAPKLLIYSASYRYTGVPSRFSGSGSGTDFTLTISSLQPEDFATYYCQQYYIYPYTFGTGTKVTVLGGGGGSQVQLQESGPGLVKPSETLSLTCKVSGFSFSSGYDMCWIRQPPGKGLEWIGCVVAGSVDITYYASWAKGRVTISVDSSKNQFSLKLSSVTAADTAVYYCARKDAYSDAFNLWGQGTLVTVSSGGGGSGGGGSIQMTQSPSSLSASVGDRVTITCQSSESVYSNNQLSWYQQKPGQPPKLLIYDASDLASGVPSRFSGSGSGTDFTLTISSLQPEDFATYYCAGGFSSSSDTAFGGGTKLTVLGGGGGSGGGGSGGGGSGGGGSEVQLVESGGGLVQPGGSLRLSCAASGFSLSSNAMGWVRQAPGKGLEYIGIISVGGFTYYASWAKGRFTISRDNSKNTVYLQMNSLRAEDTATYFCARDRHGGDSSGAFYLWGQGTLVTVSS
notes: also called PR01814
B2: the half-inhibitory concentration (IC50) is 53.8 µg/mL in experiment [3] and 0.0525 µg/mL in experiment [4].

B3: PRO1854 (multispecific antibody)
chain: DIQMTQSPSSLSASVGDRVTITCQASQSINDYLAWYQQKPGKAPKLLIYKASTLASGVPSRFSGSGSGTDFTLTISSLQPEDFATYYCQAGYIITDIDNVFGTGTKVTVLGGGGGSEVQLVESGGGLVQPGGSLRLSCAASGFTFTDYTMDWVRQAPGKCLEWVADVNPNSGGSIYNQRFKGRFTLSVDRSKNTLYLQMNSLRAEDTAVYYCARNLGPSFYFDYWGQGTLVTVSSGGGGSGGGGSGGGGSGGGGSDIQMTQSPSSLSASVGDRVTITCKASQDVSIGVAWYQQKPGKAPKLLIYSASYRYTGVPSRFSGSGSGTDFTLTISSLQPEDFATYYCQQYYIYPYTFGCGTKVTVLGGGGGSQVQLQESGPGLVKPSETLSLTCKVSGFSFSSGYDMCWIRQPPGKGLEWIGCVVAGSVDITYYASWAKGRVTISVDSSKNQFSLKLSSVTAADTAVYYCARKDAASDAFNLWGQGTLVTVSSGGGGSGGGGSIQMTQSPSSLSASVGDRVTITCQSSESVYSNNQLSWYQQKPGQPPKLLIYDASDLASGVPSRFSGSGSGTDFTLTISSLQPEDFATYYCAGGFSSSSDTAFGGGTKLTVLGGGGGSGGGGSGGGGSGGGGSEVQLVESGGGLVQPGGSLRLSCAASGFSLSSNAMGWVRQAPGKGLEYIGIISVGGFTYYASWAKGRFTISRDNSKNTVYLQMNSLRAEDTATYFCARDRHGGDSSGAFYLWGQGTLVTVSS
In the case of B3, the IC50 in experiment [3] came to 53.5 µg/mL; in experiment [4] it was 0.0561 µg/mL.

B4: PRO1853 (multispecific antibody)
chain: DIQMTQSPSSLSASVGDRVTITCQASQSINDYLAWYQQKPGKAPKLLIYKASTLASGVPSRFSGSGSGTDFTLTISSLQPEDFATYYCQAGYIITDIDNVFGTGTKVTVLGGGGGSEVQLVESGGGLVQPGGSLRLSCAASGFTFTDYTMDWVRQAPGKGLEWVADVNPNSGGSIYNQRFKGRFTLSVDRSKNTLYLQMNSLRAEDTAVYYCARNLGPSFYFDYWGQGTLVTVSSGGGGSGGGGSGGGGSGGGGSDIQMTQSPSSLSASVGDRVTITCKASQDVSIGVAWYQQKPGKAPKLLIYSASYRYTGVPSRFSGSGSGTDFTLTISSLQPEDFATYYCQQYYIYPYTFGTGTKVTVLGGGGGSQVQLQESGPGLVKPSETLSLTCKVSGFSFSSGYDMCWIRQPPGKGLEWIGCVVAGSVDITYYASWAKGRVTISVDSSKNQFSLKLSSVTAADTAVYYCARKDAASDAFNLWGQGTLVTVSSGGGGSGGGGSIQMTQSPSSLSASVGDRVTITCQSSESVYSNNQLSWYQQKPGQPPKLLIYDASDLASGVPSRFSGSGSGTDFTLTISSLQPEDFATYYCAGGFSSSSDTAFGGGTKLTVLGGGGGSGGGGSGGGGSGGGGSEVQLVESGGGLVQPGGSLRLSCAASGFSLSSNAMGWVRQAPGKGLEYIGIISVGGFTYYASWAKGRFTISRDNSKNTVYLQMNSLRAEDTATYFCARDRHGGDSSGAFYLWGQGTLVTVSS
For B4, the IC50 in experiment [3] was 88.2 µg/mL; in experiment [4], 0.0695 µg/mL.

B5: PRO1852 (multispecific antibody)
chain: DIQMTQSPSSLSASVGDRVTITCQASQSINDYLAWYQQKPGKAPKLLIYKASTLASGVPSRFSGSGSGTDFTLTISSLQPEDFATYYCQAAYIITDIDNVFGTGTKVTVLGGGGGSEVQLVESGGGLVQPGGSLRLSCAASGFTFTDYTMDWVRQAPGKCLEWVADVNPNSGGSIYNQRFKGRFTLSVDRSKNTLYLQMNSLRAEDTAVYYCARNLGPSFYFDYWGQGTLVTVSSGGGGSGGGGSGGGGSGGGGSDIQMTQSPSSLSASVGDRVTITCKASQDVSIGVAWYQQKPGKAPKLLIYSASYRYTGVPSRFSGSGSGTDFTLTISSLQPEDFATYYCQQYYIYPYTFGCGTKVTVLGGGGGSQVQLQESGPGLVKPSETLSLTCKVSGFSFSSGYDMCWIRQPPGKGLEWIGCVVAGSVDITYYASWAKGRVTISVDSSKNQFSLKLSSVTAADTAVYYCARKDAYSDAFNLWGQGTLVTVSSGGGGSGGGGSIQMTQSPSSLSASVGDRVTITCQSSESVYSNNQLSWYQQKPGQPPKLLIYDASDLASGVPSRFSGSGSGTDFTLTISSLQPEDFATYYCAGGFSSSSDTAFGGGTKLTVLGGGGGSGGGGSGGGGSGGGGSEVQLVESGGGLVQPGGSLRLSCAASGFSLSSNAMGWVRQAPGKGLEYIGIISVGGFTYYASWAKGRFTISRDNSKNTVYLQMNSLRAEDTATYFCARDRHGGDSSGAFYLWGQGTLVTVSS
On to B5, for which the IC50 in experiment [3] was 16.8 µg/mL; in experiment [4], 0.0556 µg/mL.

B6: PRO1494 (scFv, V domains shown)
VH: QVQLQESGPGLVKPSETLSLTCKVSGFSFSSGYDMCWIRQPPGKGLEWIGCVVAGSVDITYYASWAKGRVTISVDSSKNQFSLKLSSVTAADTAVYYCARKDAASDAFNLWGQGTLVTVSS
VL: DIQMTQSPSSLSASVGDRVTITCQASQSINDYLAWYQQKPGKAPKLLIYKASTLASGVPSRFSGSGSGTDFTLTISSLQPEDFATYYCQAGYIITDIDNVFGTGTKVTVLG
In the case of B6, the “IC50, neutralization of PD-L1 in NF-AT potency assay” value in experiment [5] came to 36.8 µg/mL.
